Test results from PMC10583499 (Science translational medicine, 2023).

Tests used:
[1] = molecular target: biotinylated NRP2 (epitope binning) (Homo sapiens, UniProt O60462-3, biotin (site not stated)); experiment: BLI
[2] = molecular target: T1, human NRP2 (v2, NM_003872.3), untagged, stably overexpressed on Expi293F cells (Expi293F-hNRP2) (human, UniProt O60462-3 21-926); experiment: flow cytometry on cells
T1 sequence (looked up): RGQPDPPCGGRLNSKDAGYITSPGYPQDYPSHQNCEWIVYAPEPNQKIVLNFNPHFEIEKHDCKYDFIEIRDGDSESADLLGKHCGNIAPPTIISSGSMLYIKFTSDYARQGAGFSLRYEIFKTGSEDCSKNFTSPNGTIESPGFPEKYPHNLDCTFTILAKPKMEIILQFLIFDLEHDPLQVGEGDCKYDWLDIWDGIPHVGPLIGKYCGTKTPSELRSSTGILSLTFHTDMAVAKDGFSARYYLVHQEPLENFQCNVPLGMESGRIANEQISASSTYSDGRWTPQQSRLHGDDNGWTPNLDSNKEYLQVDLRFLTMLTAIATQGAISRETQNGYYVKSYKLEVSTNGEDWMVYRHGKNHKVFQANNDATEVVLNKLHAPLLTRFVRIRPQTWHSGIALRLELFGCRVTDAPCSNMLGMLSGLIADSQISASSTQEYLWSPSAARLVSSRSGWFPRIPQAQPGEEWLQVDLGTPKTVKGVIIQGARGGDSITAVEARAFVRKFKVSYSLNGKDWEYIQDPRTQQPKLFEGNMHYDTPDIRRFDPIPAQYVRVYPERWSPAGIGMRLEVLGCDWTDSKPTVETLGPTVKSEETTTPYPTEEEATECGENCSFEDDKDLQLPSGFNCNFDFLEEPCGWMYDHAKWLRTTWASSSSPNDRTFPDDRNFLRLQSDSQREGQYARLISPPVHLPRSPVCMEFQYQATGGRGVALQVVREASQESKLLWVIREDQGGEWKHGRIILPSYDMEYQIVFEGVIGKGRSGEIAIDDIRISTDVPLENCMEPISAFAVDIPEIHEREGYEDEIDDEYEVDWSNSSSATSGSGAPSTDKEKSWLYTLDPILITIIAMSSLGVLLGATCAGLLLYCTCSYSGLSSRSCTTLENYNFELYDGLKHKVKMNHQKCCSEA

[3] = molecular target: His-tagged hNRP2 (amino acids 146 to 595), a2b1b2 domains, for crystallization (human, UniProt O60462-3); experiment: crystal structure

B1: Genentech aNRP2B antibody (antibody, V domains shown)
VH: EVQLVESGGGLVQPGGSLRLSCAASGFTITSSGIHWVRQAPGKGLEWVARITPYDGSTDYADSVKGRFTISADTSKNTAYLQMNSLRAEDTAVYYCARYRGRLLFDYWGQGTLVTVSS
VL: not shown
B1: binds [1].

B2: recombinant human VEGF-C, untagged (ligand, UniProt P49767 112-227, looked up)
chain: AHYNTEILKSIDNEWRKTQCMPREVCIDVGKEFGVATNTFFKPPCVSVYRCGGCCNSEGLQCMNTSTSYLSKTLFEITVPLSQGPKPVTISFANHTSCRCMSKLDVYRQVHSIIRR
B2 showed an EC50 [2] of 600 pM.

B3: aNRP2-10 Fab (Fab, V domains shown)
VH: EVQLVQSGAEVKKPGATVKISCKVSGFNIKDYYIHWVQQAPGKGLEWMGRIDVEDDETKYAPKFQGRVTITADTSTDTAYMELSSLRSEDTAVYYCATPIYGSREAWFAYWGQGTLVTVSS
VL: DIQMTQSPSSLSASVGDRVTITCTASSSVSSSYLHWYQQKPGKAPKLLIYRTSNLASGVPSRFSGSGSGTDFTLTISSLQPEDFATYYCHQYYRSPPTFGGGTKVEIK
B3: binds [3].
